T1: synthetic 13-residue sulfatase consensus motif peptide LCSPSRGSLFTGR
T1 chain: LCSPSRGSLFTGR

B1: Strep FGE Cys272Ser mutant (protein)
chain: AVAAPSPAAAAEPGPAARPRSTRGQVRLPGGEFAMGDAFGEGYPADGETPVHTVRLRPFHIDETAVTNARFAAFVKATGHVTDAERFGSSAVFHLVVAAPDADVLGSAAGAPWWINVRGAHWRRPEGARSDITGRPNHPVVHVSWNDATAYARWAGKRLPTEAEWEYAARGGLAGRRYAWGDELTPGGRWRCNIWQGRFPHVNTAEDGHLSTAPVKSYRPNGHGLWNTAGNVWEWCSDWFSPTYYAESPTVDPHGPGTGAARVLRGGSYLSHDSYCNRYRVAARSSNTPDSSSGNLGFRCANDADLTSGSAAE
B2: Strep FGE Cys277Ser mutant (protein)
chain: AVAAPSPAAAAEPGPAARPRSTRGQVRLPGGEFAMGDAFGEGYPADGETPVHTVRLRPFHIDETAVTNARFAAFVKATGHVTDAERFGSSAVFHLVVAAPDADVLGSAAGAPWWINVRGAHWRRPEGARSDITGRPNHPVVHVSWNDATAYARWAGKRLPTEAEWEYAARGGLAGRRYAWGDELTPGGRWRCNIWQGRFPHVNTAEDGHLSTAPVKSYRPNGHGLWNTAGNVWEWCSDWFSPTYYAESPTVDPHGPGTGAARVLRGGSYLCHDSYSNRYRVAARSSNTPDSSSGNLGFRCANDADLTSGSAAE
B3: Strep FGE Trp234Phe mutant (protein)
chain: AVAAPSPAAAAEPGPAARPRSTRGQVRLPGGEFAMGDAFGEGYPADGETPVHTVRLRPFHIDETAVTNARFAAFVKATGHVTDAERFGSSAVFHLVVAAPDADVLGSAAGAPWWINVRGAHWRRPEGARSDITGRPNHPVVHVSWNDATAYARWAGKRLPTEAEWEYAARGGLAGRRYAWGDELTPGGRWRCNIWQGRFPHVNTAEDGHLSTAPVKSYRPNGHGLWNTAGNVFEWCSDWFSPTYYAESPTVDPHGPGTGAARVLRGGSYLCHDSYCNRYRVAARSSNTPDSSSGNLGFRCANDADLTSGSAAE
B4: Streptomyces coelicolor formylglycine generating enzyme (Strep FGE, SCO7548), recombinant wild type (protein)
chain: AVAAPSPAAAAEPGPAARPRSTRGQVRLPGGEFAMGDAFGEGYPADGETPVHTVRLRPFHIDETAVTNARFAAFVKATGHVTDAERFGSSAVFHLVVAAPDADVLGSAAGAPWWINVRGAHWRRPEGARSDITGRPNHPVVHVSWNDATAYARWAGKRLPTEAEWEYAARGGLAGRRYAWGDELTPGGRWRCNIWQGRFPHVNTAEDGHLSTAPVKSYRPNGHGLWNTAGNVWEWCSDWFSPTYYAESPTVDPHGPGTGAARVLRGGSYLCHDSYCNRYRVAARSSNTPDSSSGNLGFRCANDADLTSGSAAE
B5: Mycobacterium tuberculosis formylglycine generating enzyme (Mtb FGE, Rv0712), recombinant wild type (protein)
chain: LTELVDLPGGSFRMGSTRFYPEEAPIHTVTVRAFAVERHPVTNAQFAEFVSATGYVTVAEQPLDPGLYPGVDAADLCPGAMVFCPTAGPVDLRDWRQWWDWVPGACWRHPFGRDSDIADRAGHPVVQVAYPDAVAYARWAGRRLPTEAEWEYAARGGTTATYAWGDQEKPGGMLMANTWQGRFPYRNDGALGWVGTSPVGRFPANGFGLLDMIGNVWEWTTTEFYPHHRIDPPSTACCAPVKLATAADPTISQTLKGGSHLCAPEYCHRYRPAARSPQSQDTATTHIGFRCVADPVSG

This data set deals with T1, synthetic 13-residue sulfatase ….
On to B1, for which the “conversion of cysteine to FGly in the peptide, by mass spectrometry (FGE activity assay)” value (from here on “conversion of cysteine to FGly”) was “serine mutants were unable to generate FGly in vitro”. In the case of B2, the “conversion of cysteine to FGly” value is “serine mutants were unable to generate FGly in vitro”.

On to B3, for which the “conversion of cysteine to FGly” value is “mutation of Trp234 to Phe did not abolish activity”.

Turning to B4, the “conversion of cysteine to FGly” value was “WT Strep FGE was able to oxidize the synthetic peptide”. As to B5, the “conversion of cysteine to FGly” value is given as “Recombinant Rv0712 was able to modify a synthetic peptide containing the sulfatase motif as determined by mass spectrometry”.
